Results as given in PMC11883961.

Molecular target: T1, MAPRE1 (native MS), Q15691
T1 chain: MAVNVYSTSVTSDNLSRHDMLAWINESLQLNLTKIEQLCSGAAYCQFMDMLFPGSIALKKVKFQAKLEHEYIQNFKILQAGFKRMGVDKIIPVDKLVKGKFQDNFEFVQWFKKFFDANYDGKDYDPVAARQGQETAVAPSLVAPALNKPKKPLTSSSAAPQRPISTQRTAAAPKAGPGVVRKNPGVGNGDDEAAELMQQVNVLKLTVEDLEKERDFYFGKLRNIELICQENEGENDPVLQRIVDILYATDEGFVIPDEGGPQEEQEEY
Assay: native MS
Settings: remark: other sources report otherwise

B1: MAPRE1 (native MS), Q15691 1-268 (natural protein)
chain: T1 chain
B1 was tested, and the stoichiometry N was 2.
